Patent publication US20250152746A1, “BASE EDITING OF ANGPTL3 AND METHODS OF USING SAME FOR TREATMENT OF DISEASE” (Verve Therapeutics, Inc., priority 2020, published 2025)
m = 2'-O-methyl; r = 2'-OH (RNA)

B1: GA220: PCSK9 gRNA; protospacer GTGCTCAACTGCCAAGGGAA (SEQ ID NO: 214) (nucleic acid)
guide: GUGCUCAACUGCCAAGGGAAGUUUUAGAGCUAGAAAUAGCAAGUUAAAAUAAGGCUAGUCCGUUAUCAACUUGAAAAAGUGGCACCGAGUCGGUGCUUUU
modifications: sugars from the 5' end m3 r94 m3, linkages s3 o93 s3 (s phosphorothioate, o phosphodiester), T or U not given here
B2: GA221: PCSK9 gRNA; protospacer TCATGGCACCCACCTGGCAG (SEQ ID NO: 215) (nucleic acid)
guide: UCAUGGCACCCACCUGGCAGGUUUUAGAGCUAGAAAUAGCAAGUUAAAAUAAGGCUAGUCCGUUAUCAACUUGAAAAAGUGGCACCGAGUCGGUGCUUUU
modifications: sugars from the 5' end m3 r94 m3, linkages s3 o93 s3 (s phosphorothioate, o phosphodiester), T or U not given here
B3: GA216: PCSK9 gRNA; protospacer CCGGGATGCCGGCGTGGCCA (SEQ ID NO: 210) (nucleic acid)
guide: CCGGGAUGCCGGCGUGGCCAGUUUUAGAGCUAGAAAUAGCAAGUUAAAAUAAGGCUAGUCCGUUAUCAACUUGAAAAAGUGGCACCGAGUCGGUGCUUUU
modifications: sugars from the 5' end m3 r94 m3, linkages s3 o93 s3 (s phosphorothioate, o phosphodiester), T or U not given here
B4: GA223: PCSK9 gRNA; protospacer GCTGACCACCCCTGCCAGGT (SEQ ID NO: 217) (nucleic acid)
guide: GCUGACCACCCCUGCCAGGUGUUUUAGAGCUAGAAAUAGCAAGUUAAAAUAAGGCUAGUCCGUUAUCAACUUGAAAAAGUGGCACCGAGUCGGUGCUUUU
modifications: sugars from the 5' end m3 r94 m3, linkages s3 o93 s3 (s phosphorothioate, o phosphodiester), T or U not given here
B5: GA219: PCSK9 gRNA; protospacer GGCAGGGGTGGTCAGCGGCC (SEQ ID NO: 213) (nucleic acid)
guide: GGCAGGGGUGGUCAGCGGCCGUUUUAGAGCUAGAAAUAGCAAGUUAAAAUAAGGCUAGUCCGUUAUCAACUUGAAAAAGUGGCACCGAGUCGGUGCUUUU
modifications: sugars from the 5' end m3 r94 m3, linkages s3 o93 s3 (s phosphorothioate, o phosphodiester), T or U not given here
B6: GA222: PCSK9 gRNA; protospacer TGGCAGGGGTGGTCAGCGGC (SEQ ID NO: 216) (nucleic acid)
guide: UGGCAGGGGUGGUCAGCGGCGUUUUAGAGCUAGAAAUAGCAAGUUAAAAUAAGGCUAGUCCGUUAUCAACUUGAAAAAGUGGCACCGAGUCGGUGCUUUU
modifications: sugars from the 5' end m3 r94 m3, linkages s3 o93 s3 (s phosphorothioate, o phosphodiester), T or U not given here
B7: GA217: PCSK9 gRNA; protospacer GTGGTCAGCGGCCGGGATGC (SEQ ID NO: 211) (nucleic acid)
guide: GUGGUCAGCGGCCGGGAUGCGUUUUAGAGCUAGAAAUAGCAAGUUAAAAUAAGGCUAGUCCGUUAUCAACUUGAAAAAGUGGCACCGAGUCGGUGCUUUU
modifications: sugars from the 5' end m3 r94 m3, linkages s3 o93 s3 (s phosphorothioate, o phosphodiester), T or U not given here
B8: GA160: PCSK9 gRNA; protospacer GCCTTGCGTTCCGAGGAGGA (SEQ ID NO: 154) (nucleic acid)
guide: GCCUUGCGUUCCGAGGAGGAGUUUUAGAGCUAGAAAUAGCAAGUUAAAAUAAGGCUAGUCCGUUAUCAACUUGAAAAAGUGGCACCGAGUCGGUGCUUUU
modifications: sugars from the 5' end m3 r94 m3, linkages s3 o93 s3 (s phosphorothioate, o phosphodiester), T or U not given here
B9: GA225: PCSK9 gRNA; protospacer GGCATCGTCCCGGAAGTTGC (SEQ ID NO: 219) (nucleic acid)
guide: GGCAUCGUCCCGGAAGUUGCGUUUUAGAGCUAGAAAUAGCAAGUUAAAAUAAGGCUAGUCCGUUAUCAACUUGAAAAAGUGGCACCGAGUCGGUGCUUUU
modifications: sugars from the 5' end m3 r94 m3, linkages s3 o93 s3 (s phosphorothioate, o phosphodiester), T or U not given here
B10: GA215: PCSK9 gRNA; protospacer CAGCGGCCGGGATGCCGGCG (SEQ ID NO: 209) (nucleic acid)
guide: CAGCGGCCGGGAUGCCGGCGGUUUUAGAGCUAGAAAUAGCAAGUUAAAAUAAGGCUAGUCCGUUAUCAACUUGAAAAAGUGGCACCGAGUCGGUGCUUUU
modifications: sugars from the 5' end m3 r94 m3, linkages s3 o93 s3 (s phosphorothioate, o phosphodiester), T or U not given here
B11: GA224: PCSK9 gRNA; protospacer GGCCGCTGACCACCCCTGCC (SEQ ID NO: 218) (nucleic acid)
guide: GGCCGCUGACCACCCCUGCCGUUUUAGAGCUAGAAAUAGCAAGUUAAAAUAAGGCUAGUCCGUUAUCAACUUGAAAAAGUGGCACCGAGUCGGUGCUUUU
modifications: sugars from the 5' end m3 r94 m3, linkages s3 o93 s3 (s phosphorothioate, o phosphodiester), T or U not given here
B12: GA228: PCSK9 gRNA; protospacer CGGCTGTACCCACCCGCCAG (SEQ ID NO: 222) (nucleic acid)
guide: CGGCUGUACCCACCCGCCAGGUUUUAGAGCUAGAAAUAGCAAGUUAAAAUAAGGCUAGUCCGUUAUCAACUUGAAAAAGUGGCACCGAGUCGGUGCUUUU
modifications: sugars from the 5' end m3 r94 m3, linkages s3 o93 s3 (s phosphorothioate, o phosphodiester), T or U not given here
B13: GA227: PCSK9 gRNA; protospacer GTCCCGGAAGTTGCCGGCAG (SEQ ID NO: 221) (nucleic acid)
guide: GUCCCGGAAGUUGCCGGCAGGUUUUAGAGCUAGAAAUAGCAAGUUAAAAUAAGGCUAGUCCGUUAUCAACUUGAAAAAGUGGCACCGAGUCGGUGCUUUU
modifications: sugars from the 5' end m3 r94 m3, linkages s3 o93 s3 (s phosphorothioate, o phosphodiester), T or U not given here
B14: GA218: PCSK9 gRNA; protospacer CGCTGACCACCCCTGCCAGG (SEQ ID NO: 212) (nucleic acid)
guide: CGCUGACCACCCCUGCCAGGGUUUUAGAGCUAGAAAUAGCAAGUUAAAAUAAGGCUAGUCCGUUAUCAACUUGAAAAAGUGGCACCGAGUCGGUGCUUUU
modifications: sugars from the 5' end m3 r94 m3, linkages s3 o93 s3 (s phosphorothioate, o phosphodiester), T or U not given here

How the values were obtained:
PCSK9 gene [1] = assay: PCSK9 gRNA/SpCas9 editing in primary cynomolgus hepatocytes (Tables 2, 22); format: cell-based, cynomolgus monkey; details: SpCas9 mRNA MS002 1:1 by weight; for Cyno Primary Hepatocyte Editing % 100: 100 ng/RNA/mL; for Cyno Primary Hepatocyte Editing % 500: 500 ng/RNA/mL; for Cyno Primary Hepatocyte Editing % 2500: 2500 ng/RNA/mL
PCSK9 gene [2] = assay: PCSK9 gRNA/SpCas9 editing in primary human hepatocytes (Tables 2, 4); format: cell-based; details: SpCas9 mRNA MS002 1:1 by weight; for Human Primary Hepatocyte Editing % 100: 100 ng/RNA/mL; for Human Primary Hepatocyte Editing % 500: 500 ng/RNA/mL; for Human Primary Hepatocyte Editing % 2500: 2500 ng/RNA/mL
How it was run: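 Primary human hepatocytes co-transfected with PCSK9 gRNA plus SpCas9 mRNA (1:1 by weight) at 2500, 500 or 100 ng RNA/mL, or 2500–250 ng/mL for tracr-modified guides. Editing at the target site read by amplicon next-generation sequencing of extracted genomic DNA.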

Row | Molecule | Cyno Primary Hepatocyte Editing % 100 (PCSK9 gene [1]) [%] | Cyno Primary Hepatocyte Editing % 500 (PCSK9 gene [1]) [%] | Cyno Primary Hepatocyte Editing % 2500 (PCSK9 gene [1]) [%] | Human Primary Hepatocyte Editing % 100 (PCSK9 gene [2]) [%] | Human Primary Hepatocyte Editing % 500 (PCSK9 gene [2]) [%] | Human Primary Hepatocyte Editing % 2500 (PCSK9 gene [2]) [%]
1 | B1 | 3.13 | 12.39 | 45.17 | 2.17 | 9.12 | 21.87
2 | B2 | 2.82 | 20.27 | 57.4 | 1.11 | 7.48 | 29.35
3 | B3 | 1.77 | 4.97 | 37.79 | 0.95 | 3.7 | 14.65
4 | B4 | 3.46 | 21.4 | 57.58 | 1.44 | 7.28 | 17.5
5 | B5 | 0.35 | 11.89 | 48.67 | 1.28 | 4.57 | 15.97
6 | B6 | 0.88 | 3.32 | 16.7 | 0.5 | 0.66 | 2.04
7 | B7 | 2.6 | 10.2 | 39.21 | 0.77 | 2.75 | 15.31
8 | B8 | 1.38 | 6.60 | 23.15 | 1.19 | 5.58 | 23.3
9 | B9 | 2.03 | 3.11 | 8.57 | 0.89 | 6.39 | 18.82
10 | B10 |  | 1.07 | 7.52 | 0.13 | 1.01 | 4.94
11 | B11 | 2.61 | 12.34 | 47.5 | 1.01 | 2.19 | 13.02
12 | B12 | 1.95 | 7.89 | 31.36 | 5.9 | 10.96 | 37.1
13 | B13 | 0.56 | 4.58 | 32.41 | 0.02 | 8.29 | 32.09
14 | B14 | 5.42 | 19.95 | 58.66 | 3.81 | 8.96 | 31.71
